Consider 2 proteins from paper PMC4398557, “Conserved Streptococcus pneumoniae Spirosomes Suggest a Single Type of Transformation Pilus in Competence” (PLoS Pathogens, 2015).

Series [1] concerns the molecule itself. The series can be described thus: SEC + other: negative-stain electron microscopy.
Series [2] concerns the molecule itself. Nature of the series: negative-stain electron microscopy; Talon eluate (TBS, 140 mM imidazole) of recombinant His-tagged protein applied at once to carbon grids, 2% uranyl acetate.

B1: bifunctional acetaldehyde-alcohol dehydrogenase AdhE (Streptococcus pneumoniae), native spirosomes (enzyme)
chain: MKAMEENMADKKTVTPEEKKLVAEKHVDELVQKALVALEEMRKLNQEQVDYIVAKASVAALDAHGELALHAFEETGRGVFEDKATKNLFACEHVVNNMRHTKTVGVIEEDDVTGLTLIAEPVGVVCGITPTTNPTSTAIFKSLISLKTRNPIVFAFHPSAQESSAHAARIVRDAAIAAGAPENCVQWITQPSMEATSALMNHEGVATILATGGNAMVKAAYSCGKPALGVGAGNVPAYVEKSANIRQAAHDIVMSKSFDNGMVCASEQAVIIDKEIYDEFVAEFKSYHTYFVNKKEKALLEEFCFGVKANSKNCAGAKLNADIVGKPATWIAEQAGFTVPEGTNILAAECKEVGENEPLTREKLSPVIAVLKSESREDGITKARQMVEFNGLGHSAAIHTADEELTKEFGKAVKAIRVICNSPSTFGGIGDVYNAFLPSLTLGCGSYGRNSVGDNVSAINLLNIKKVGRRRNNMQWMKLPSKTYFERDSIQYLQKCRDVERVMIVTDHAMVELGFLDRIIEQLDLRRNKVVYQIFADVEPDPDITTVNRGTEIMRAFKPDTIIALGGGSPMDAAKVMWLFYEQPEVDFRDLVQKFMDIRKRAFKFPLLGKKTKFIAIPTTSGTGSEVTPFAVISDKANNRKYPIADYSLTPTVAIVDPALVLTVPGFVAADTGMDVLTHATEAYVSQMASDYTDGLALQAIKLVFENLESSVKNADFHSREKMHNASTIAGMAFANAFLGISHSMAHKIGAQFHTIHGRTNAILLPYVIRYNGTRPAKTATWPKYNYYRADEKYQDIARMLGLPASTPEEGVESYAKAVYELGERIGIQMNFRDQGIDEKEWKEHSRELAFLAYEDQCSPANPRLPMVDHMQEIIEDAYYGYKERPGRRK
notes: also called spirosin; 'plaited' filaments
With B1, the binding result in series [1] is “binds”.

B2: AdhE^S.pneumoniae, C-terminally hexahistidine-tagged, expressed in E. coli (enzyme)
chain: MKAMEENMADKKTVTPEEKKLVAEKHVDELVQKALVALEEMRKLNQEQVDYIVAKASVAALDAHGELALHAFEETGRGVFEDKATKNLFACEHVVNNMRHTKTVGVIEEDDVTGLTLIAEPVGVVCGITPTTNPTSTAIFKSLISLKTRNPIVFAFHPSAQESSAHAARIVRDAAIAAGAPENCVQWITQPSMEATSALMNHEGVATILATGGNAMVKAAYSCGKPALGVGAGNVPAYVEKSANIRQAAHDIVMSKSFDNGMVCASEQAVIIDKEIYDEFVAEFKSYHTYFVNKKEKALLEEFCFGVKANSKNCAGAKLNADIVGKPATWIAEQAGFTVPEGTNILAAECKEVGENEPLTREKLSPVIAVLKSESREDGITKARQMVEFNGLGHSAAIHTADEELTKEFGKAVKAIRVICNSPSTFGGIGDVYNAFLPSLTLGCGSYGRNSVGDNVSAINLLNIKKVGRRRNNMQWMKLPSKTYFERDSIQYLQKCRDVERVMIVTDHAMVELGFLDRIIEQLDLRRNKVVYQIFADVEPDPDITTVNRGTEIMRAFKPDTIIALGGGSPMDAAKVMWLFYEQPEVDFRDLVQKFMDIRKRAFKFPLLGKKTKFIAIPTTSGTGSEVTPFAVISDKANNRKYPIADYSLTPTVAIVDPALVLTVPGFVAADTGMDVLTHATEAYVSQMASDYTDGLALQAIKLVFENLESSVKNADFHSREKMHNASTIAGMAFANAFLGISHSMAHKIGAQFHTIHGRTNAILLPYVIRYNGTRPAKTATWPKYNYYRADEKYQDIARMLGLPASTPEEGVESYAKAVYELGERIGIQMNFRDQGIDEKEWKEHSRELAFLAYEDQCSPANPRLPMVDHMQEIIEDAYYGYKERPGRRK
notes: not shown: His6, C-terminal, kept
B2: the binding result in series [2] is given as “binds”.
